How the values were obtained:
[1] = molecular target: A型インフルエンザウィルス亜型H1N1(A/Puerto Rico/8/1934)の核内タンパク質(NP抗原) (Influenza A virus H1N1 (A/Puerto …, UniProt P03466 1-498)); assay: sandwich ELISA, […] (capture) […]
[2] = molecular target: H1N1インフルエンザウィルスA型(A/Puerto Rico/8/34/Mount Sinai)由来のリコンビナント核内タンパク質 (Influenza A virus H1N1 (A/Puerto …, UniProt P03466 1-498)); assay: phage ELISA, NP coated at 2 ug/mL, anti-M13 detection, A450

Row | Binder | binding result [1] | binding result [2]
1 | 抗体A2 (VHH antibody having the amino acid sequence of SEQ ID NO: 2) (VHH) VHH: QVQLVESGGGLVQTGGPLRLSCAVSDRTDSNYAMGWFRQAPGKEREFVAAISGTGYVTGYADSARNRFTLSRDNGKNAVYLQMNSLEPADTAVYYCAATSDQRYPGPRSSGYDYWGQGTQVTVSS | binds | 
2 | 抗体A4 (VHH antibody having the amino acid sequence of SEQ ID NO: 4) (VHH) VHH: EVQLVESGGGLVQAGDSLRLSCAASGRTFINLDMGWFRQPPGKEREYVAAITRNGAITSYADSAKGRFTISRDNAKNTVSLEMNSLKPEDTGVYYCAAYSISNYGSGWYKPDYWGQGAQVTVSS | binds | 
3 | 抗体A3 (VHH antibody having the amino acid sequence of SEQ ID NO: 3) (VHH) VHH: EVQLVESGGGLVQPGGSLSLSCAASGFTFSNYYMGWFRQAPGKERQSLATVNSGGTGEAYADSIRGRFTISRDNAKNTVTLQMSSLQPEDTAVYYCARVDGRVLSTIVVSYDYWGQGTQVTVSS | binds | binds
4 | 抗体A1 (VHH antibody having the amino acid sequence of SEQ ID NO: 1) (VHH) VHH: QLQLVESGGGLVQAGGSLRLSCAASGSAFSLYAMGWHRQAPGKQRELVAYITNGDITNYADSVQGRVIISRDNAKNTVYLHMNSLKPEDTAVYYCYAVGGRTFWGQGTQVTVSS | binds | 
